Data from the nanobody polyreactivity screen of Harvey et al. (2022).

Test: yeast display, Sf9 membrane polyspecificity reagent, FACS + sequencing; frameworks hold sequencing errors
Outline: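 Genes from sorted yeast were amplified by colony PCR, read by MiSeq 2 × 250 sequencing and filtered on CDR length. These cells carried a synthetic nanobody library in Saccharomyces cerevisiae BJ5465 and were sorted by FACS into low and high (top ~1%) gates on anti-HA and streptavidin fluorescence. Polyreactivity is labelled according to the gate of origin.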

Row | Sequence | polyreactivity (PSR sort gate)
1 | QVQLVESGGGLVQAGGSLRLSCAASGYTFTQNAMGWYRQAPGKERELVASITSGGSTDYADSVKGRFTISRDNAKNTVYLQMNSLKPEDTAVYYCAKDYYAYSDYDYWGQGTQVTVSS | low polyreactivity
2 | QVQIVESGGGLVQAGGSLRLSCAASGSTFGRYAMGWYRQAPGKEREMVAAISASGGSTYYADSVKGRFTISRDYAKNTVYVQMNSLKPEDTAVYYCAALIDVITCQYDYWGHGTQVTVSS | high polyreactivity
3 | QVQLVESGGGLVQAGGSHRLSCAASGSIFYPYPMGLYRQAPGKERELVAAITTRDDSTRYADSVKGRFTISRDNAKNTGYLQMNTLKPEDTAVYYCNTDYGPVFGQYYWYELDYWGQGTQVNVSS | low polyreactivity
4 | QVQLVESGGALVQAGGSLRLSCAASGSIFVYNAMGWYIPAPGKERELVAAITSDGSTNYADSVKGRFTISRDNATNTVYLQMNSLKPEDNAVYYCNAGNDQYPSFEYDYWGQGTKVTVSS | low polyreactivity
5 | QVQLVESGGGLVQAGGSLRISCAASGRIFYNNDMAWYRQAPGKERELVAAITVRGSITYYADSVKGRFTISRDNAKTTVYLHMNSLKPEDTAVYYCATEWVNRLYSWGQGTQVTVSS | low polyreactivity
6 | QVQLVESGGGLVQAGGSLRLSCAASGRIFRKYAMGWYRQAPGKERELVAAINWSGGSTYYADSVKGRFTISRDNAKNTVYLQMNSLKPEDTAVYYCAARSPKAERDYWGQGTQVTVSS | high polyreactivity
7 | QVQLVESGGGLVQAGGSLRLSCAASGFIFPGNAMGWYRPAPGKERELVAAISNSGSRTYYADSVKGRLTISRDNAKNTVYLQMNSLIPEDTAVYYCNADVHIRGWPYDYWGQGTQVTVSS | low polyreactivity
8 | QVQLVESGGGLVQAGGSLRLSCAASGFTLGFYAMGWYRQAPGKESELVAAINWRGGSTYYADSVKGRFTISRDNAKNTVYLQMNSLKPEDTAVYYCNARWARGRYAQYVGLDREYDYWGQGTQVTVSS | high polyreactivity
9 | QVQLVESGGGLVQEGGSLRLSCAASGSTFRFYAMGWYRQAPGKERELVAVISFNDGSTYYADSVTGRFTISRDNAKNTVYLQMNSLKPEDSAVYSCATDELDSWWNEYEYWGQGTQVTVSS | low polyreactivity
10 | QVQLVESGGGLVQAGGSLRLSCAASGLIFHSYAMGWYRQAPGKERELVAAISKRGGSTYYADSVKGRFTISRDNAKNTVYLQMNSLKPEDTAVYYCAAGARGLYDYWGQGTQVTVSS | high polyreactivity
11 | QVQLVDSGGGLVQAGGSLRLSCAASGRTFYTNAMGWYRQAPRKERQLVAAITRGGSTYYADSVKGRFTISRDNAKNTVYLQMNSLKPEDTAVYYCAADGRFRSHTFYYWGQGTQVTVSS | high polyreactivity
12 | QVQLVESGGGLVQAGGSLRLSCAASGSIFGRYGAMGWYRQAPGKERELVAAIRTSGVSTYYADSVKGRFTISRDNAKKNVYLQMNSLKPEDTAVYYCAKGYTSYNLGKYGYWGQGTQVTVSS | high polyreactivity
13 | QVHLVESGGGLVQAGGSLRLSCPASGRIFYYYTMGCYRQAPGKERELVAAITSGGSTYYADSVKGRFTISRDNAKNTVYLQMYSLKQEDTAVYYCIAEFDEKYDYWGQGTQVTVSS | low polyreactivity
14 | QVQLVESGGGLVQAGGSLRLSCAASGRIFLPYAMGWYRQAPGKERELVAAIDTNGGSTYYADSVKGRFTISRDNAKNTVYLQMNSLKPEDSAVYYCAAEVYDYTYVVTFLYDYWGQGTQVTVSS | high polyreactivity
15 | QVQLVESGGGLVQAGGSLRLSCAASGRIFRLYAMGWYRQAPGKEREFVATITWIGGRTYYADSVKGRFTISRDTAKNTVYLQMNSLKPEDTAVYYCAADPGYTYEYWGQGTQVTVSS | low polyreactivity
16 | QVQLVESGGGLVQAGGSLRLSCAASGSTFTYYTMGWSRQAPGKERELVAASSRTTGSTYYADSVKGRFTISRDNAKNTVYLQMNSLIPEDTAVYYCAAQSYKILLYFIGTAGDGYWGQGTQVTVSS | low polyreactivity
17 | QVQLVESGGGLVQAGGSLRLSSAASGRTFAWYAMGWYRQAPGKERELVAAISSGGSTYYADSVKGRFTISRDNAKNTVYLQMDSLKPEDTAVYYCAAEWHYIYAYDYWGQGTQVTVSS | low polyreactivity
18 | QVQLVESGGGLVQAGGSLRLSCAASGITFPINAMGWSRQAPGKEREFVATISFSGASTYYADSVKGRFTISRDNAKNTVYLQMNSLKPEDTAVYYCAADLSLSTGGRAFPTYGYWGQGTQVTVSS | high polyreactivity
19 | QVQLVESGGGLVQAGGSLRLSCAASGRTFGLYSMGWYRQAPGKVRELVASIDWSDDN | low polyreactivity
20 | QVQLVESAGGLVKEGGSLRLSCAASGRTFGVNAMGRYRQAPGKERELVAAITWSGDSTYYADSVKGRFTISRDNAKNTVYLQMNSLKPEDTAVYYCAKKSSLFKHVVRYAYWGQGNQVTVSS | low polyreactivity
21 | QVQLVESGGGLVQAGGSLRLSCAASGFTFAPNAMGWYRPAPGKEWELVAAISSASSTYYADSVKGRFTISRDNAKYNVYLQMKSLLPEDTAVYYCNAYYWFGPGRDYWGQGTQVTVSS | high polyreactivity
22 | QVQLVESGGGLVQAGGSLRLSCAASGRIFYRNAMGWYRPAPGKERELVASITSAGRTYYADSVKGRFTISRDNAKNTVYLQMNSLKPEDTAVYYCAVRVAVLLNLYGYWGQGTQVTVSS | low polyreactivity

Row | Sequence | polyreactivity (PSR sort gate)
23 | QVQLVESGGGLVQAGGSLRLSCAASGFTFTLNAMGWYRQAPGKERELVAGISSGGSTNYADSVKGRFTISRDNAKNTVYLQMNSLKPEDTAVYYCAADRGYVWRYDYWGQGTQVTVSS | low polyreactivity
24 | QDQLVESGGGLDQAGGSLRLSCAASGSTFPGYAMGWYRQAPGKERELVASIYTGGSTYYADSVKGRFTISRDNAKNTVYLQMNSLKPEDTAVYYCAADSYNVSSLLYYWGQGTQVTVSS | low polyreactivity
25 | QVQHVESGGGLVQAGGSLRLSCAASGSTFFKYDMGWYRPAPGTERELVAVITWSGGTTFYADSVKGRFTISRDNANNTVYLQMNSLKPEDTAVSYCAADYYGYRYDYWGQGTQVTVSS | low polyreactivity
26 | QVQLVESGGGLVQAGGSLRLSCAATGSTFRYYAMGWYRQAPGKERELVAAISASGSSTYYADSVKGRFTISRHNAKNTVFLQMYSLKPEDTAVYYCATRQFYVRLGYYSWGQGTQVTVSS | high polyreactivity
27 | QVHLVESGVGLVQAGGSRRLSCAASGVIFTGYAMGRYRHAPGKDRELVAAISSSGTSTYYADSVKGRFTISRDNAKYTVYLQINSLKPEDTAVYYCARVSKRTWSGYYFLGQGTQVTVSS | high polyreactivity
28 | QVQLVESGGGIVQAGGSLRLSCAASGFIFRYYVMGSYRQAPGKERELVASISRSGTSTYYADSVKGRFTISRDNAKNTVYLQMNSLKPEDTAVYYCAKGVGRGFGSATGYYWGQGTQVTVSS | high polyreactivity
29 | QVQLVESGGGLVQAGGSLRLSCAASGGIFRYYAMGLYRQAPGKERELVASIRRSGGRTYYADSVKGRFTISRDNAKYTVYFQMNSLKPEDTAVYYCNADRLIVTMNSWGQGTQVTVSS | low polyreactivity
30 | QVQLVESGGGLVQAGGSLRLSCAASGITFATNAMGWYRQAPGKERDLVAGITSGGSTYYADSVKGRFTISRDNAKNTVYLQMNSLKPEDTAVYYCAKRYHYWYGTGYDYWGQGTQVTVSS | low polyreactivity
31 | PVQLQESGGGLVQAGGSLRLSCAASGNIFDADIMGWYRQAPGKERELVACIADGGSTNYADSVKGRFTISRDNAKNTVYLQMNSLKPEDTAVYYCAAIAYPDIPTCFDYDSDYFIRGQGTQVTVSS | low polyreactivity
32 | HVQIVESGGGLVQAGGSLRLSCADSGSTFLGYDMGWFRQAPGKVRELVATISKSGGSTHYADSVKGRFTISRDNAKNTVSLQMNSLKPEETAVYYCAADYYPRYYKNTGEYDYWGQGTQVTVSS | low polyreactivity
33 | QVQLHESGGGLVQAGGGLRLSCAASGSISSTGFMGWYRQAPGKEREPVAAIAPGTTTYYADSVKGRFTISRDNAKNTVYLQMNSLRPEDTAVYDCADFTDNRVAFLYWGQGTQVTVSS | low polyreactivity
34 | QVQLVESGGGLVQAGGSLRLSCAASGSTFTQNAMGWYRQAPGKERELVAAIDRRGGSTYYADSVKGRFTISRDNAKNTVYLQMNSLKPEDTAVYYCAASFSYNRPKRFTHNYEYWGQGTQVTVSS | low polyreactivity
35 | QVQLLESGGGLVQAGGSLRLSCAASGITFSQYAMGWYRQAPGKERELVAAISWSGGSTYYANSVKGRFTISRDNAKNTVYLQMNSLKPEDTAVYYCAAVPVHTGSLYWGFTTGYDYWGQGTQVTVSS | low polyreactivity
36 | QVQLVESGGGLVQAGGSLRLICAASGRTFYYYGMGWYRQAPGKERELVASITNGGNTNYADSVKGRFTISRDNAKNPVYLQKHSLYPEDTAVYYCAKDVPYWRPVVRYDYWGQGTQVTVSS | low polyreactivity
37 | QVQLLESWGGLVQAGGSLRLSCAASGRTSTRNAMGWYRQAPGNERELVAAISWSGGRTHYADSVKGRFTISRDNAKNTVYLQMNSLKPEDTAVYYCAAAYTGGQKYYSWGQGTEVTVSS | high polyreactivity
38 | QVQLVESGGGLVQAGGSLRLSCAASGRTFTFYTMGWYRQAPGKERELVAAITSGGSTYYADSVKGRFTISRDNAKNTVYLQMNSLKPEDTAVYYCAAKYYYTYYYWGQGTQVTVSS | high polyreactivity
39 | QVQLVESGGGLVQAGGSLRLSCAASGLTFRQYAMGWYRQAPGKERELVAAITNGGRTYYADSVKGRFTISRDNAKNTVYLQMNSLKPEDTAVYYCAAYVPTFKDRSRWYGRKYDYWGQGTQVTVSS | low polyreactivity
40 | QVQLVESGGGLVQAGGSLRLSCAASGITFQNYAMGWYRQAPGKEMELVAAITRSGGRTYYADSVKGRFTNSRDNANYTVYLQMNSLKQEDTAVYYCAVYGIGRPYWYDYWGQGTQVTVSS | high polyreactivity
41 | QVQLVESGGGLVQAGGSLRLSCAASGRIFSSYAMGWYRQAPGKERELVAAISRGGSTYYADSVKGRFTISRDNAKNTVYLQMNSLKPEDTAVYYCAAASYSYSERRYYYWGQGTQVTVSS | high polyreactivity
42 | QVQLGESGGGLVQAGGSLRLSCAASGRTLWFYAMGWYRQAPGKERELVAAISSGGSTNYGDSVKGRFTISRDNAKNTVYLQMNSLKPEDTAVYYCAKVGNIPYGTRYDSNRYDYWGQGTQVTVSS | low polyreactivity
43 | QVQLVESGGGLVQAGGSLRFSCAASGGIFFRNAMGWYRQAPGKERELVAVISSGGSTYYADSVKGRFTISRDNAKNTVYLQMNSLKPEDTAVYYCAARRKRPVYTVTLHYPYNYWGQGTQVTVSS | high polyreactivity
